# According to paper PMC11094088, “Molecular mechanism of Oxr1p mediated disassembly of yeast V-ATPase” (EMBO Reports, 2024):
# B1: Oxidation Resistance protein 1 (Oxr1p), recombinant (natural protein, yeast, UniProt Q08952 1-273, looked up)
# chain: MFGVKDAIFKIKRSIAGTDSSDSTAYTTASESSPQLKDSHNPFRNKTTSERTIVEEGSLPPVRLNGYLPSTKNKLLTPEMCDEIRTLMPTRIQLYTEWNLLYSLEQHGSSLHSLYSNVAPDSKEFRRVGYVLVIKDRKNGIFGAYSNEAFHPNEHRQYTGNGECFLWKLDKVPDVNISEKEESEQEGKEGKEEGDKEERWRFSGYPYTGVNEFAIYCTSEFLSMGAGDGHYGLLCDDGLLHGVSNPCQTYGNEVLSKEGKKFSIVALEVWRVG
# notes: Oxr1p, yeast TLDc domain protein; construct as described in Khan et al, 2022; also called recombinant Oxr1p; source: E. coli BL21DE3, purified (Ni-NTA, Superdex-75 SEC); not shown: 7xHis, N-terminal, kept
# How the values were obtained:
# [1] = biological target: recombinant N-terminally 7×His tagged biotinylated Oxr1p (bio-Oxr1p) (yeast) (UniProt Q08952); assay: BLI; bio-Oxr1p (10 µg/ml) immobilised on streptavidin biosensors, V1ΔH^(ΔOxr1) with or without recombinant subunit C in solution; 20 mM Tris-HCl pH 7.0, 0.5 mM EDTA, β-mercaptoethanol, 5.0 mg/ml BSA; 23 °C; global fitting
# [2] = biological target: wild-type yeast V-ATPase reconstituted into lipid nanodiscs (V1VoND) (yeast (endogenous) | yeast) (UniProt P16140)
# [3] = biological target: V1ΔH^(ΔOxr1) in the presence of recombinant subunit C (yeast (endogenous) | yeast) (UniProt P16140); assay: BLI; α-mouse IgG Fc capture biosensors loaded with α-MBP antibody, then MBP-HWT or MBP-H_(chim) (5 µg/ml); 40 nM V1ΔH in solution with buffer, Oxr1p (equimolar), subunit C (twofold molar excess) or Oxr1p + subunit C; TBSE plus 0.5 mg/ml BSA; 23 °C
# [4] = biological target: T1, V1 subunit B (the B subunit of the open catalytic site), in the purified V-ATPase (yeast (endogenous), UniProt P16140 1-517); assay: cryo-EM structure; V-ATPase in lipid nanodiscs (~1-2 mg/ml) vitrified with a twofold molar excess of Oxr1p, no nucleotide; 3-D classes at ~8.2 Å; Oxr1p density in the rotary state 1 class (~31% of particles); details: both partners purified
# T1 construct: V1 subunit B, yeast; source: endogenous, part of the purified yeast V-ATPase in lipid nanodiscs
# T1 sequence (P16140 whole entry): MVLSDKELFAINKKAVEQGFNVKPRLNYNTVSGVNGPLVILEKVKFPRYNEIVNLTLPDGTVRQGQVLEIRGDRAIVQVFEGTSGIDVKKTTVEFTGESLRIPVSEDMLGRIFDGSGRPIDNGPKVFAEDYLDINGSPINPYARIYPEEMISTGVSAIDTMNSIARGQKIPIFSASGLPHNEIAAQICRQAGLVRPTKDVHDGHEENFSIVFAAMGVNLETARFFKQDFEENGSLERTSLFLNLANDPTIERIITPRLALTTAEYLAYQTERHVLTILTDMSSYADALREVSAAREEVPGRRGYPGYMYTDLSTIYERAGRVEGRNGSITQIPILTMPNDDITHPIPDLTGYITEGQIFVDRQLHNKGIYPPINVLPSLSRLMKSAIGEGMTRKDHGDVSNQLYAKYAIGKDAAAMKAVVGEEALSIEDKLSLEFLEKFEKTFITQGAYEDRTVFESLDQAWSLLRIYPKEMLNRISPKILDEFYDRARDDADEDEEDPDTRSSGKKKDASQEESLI
# [5] = biological target: wild-type yeast V-ATPase reconstituted into lipid nanodiscs (V1VoND) (yeast (endogenous) | yeast) (UniProt P16140); remark: listed apart in the source
Molecule,Kd [1] [nM],"ATPase activity of purified V-ATPase in nanodiscs left after incubation with a twofold molar excess of Oxr1p, 30 min to 16 h, relative to the starting activity [2] [%]","percent reduction of V1ΔH binding to immobilised H (chim) (subunit C and Oxr1p, against Oxr1p only) [3] [%]","percent reduction of V1ΔH binding to immobilised wild-type H (subunit C and Oxr1p, against Oxr1p only) [3] [%]",binding result [4],loss of ATPase activity of purified V-ATPase after 30 min with a twofold molar excess of Oxr1p alone [5] [%]
V1ΔH^(ΔOxr1) in the presence of recombinant subunit C (from UniProt P16140 1-517; P32610 1-256; P22203 1-233; P39111 1-118; P48836 1-114; P31412 1-392) (complex),7,,,,,
"V1ΔH, V1 subcomplex without subunit H (FLAG-tagged subunit G), from the oxr1Δvma13Δ background (from UniProt P16140 1-517; P32610 1-256; P22203 1-233; P39111 1-118; P48836 1-114)",67,,,,,
B1,,70,25,60,binds,30
